Reference: patent publication US10208288B2, “Differentiation of human embryonic stem cells into pancreatic endocrine cells” (Janssen Biotech, Inc., priority 2012, dated 2019)

B1: Epigen: protein factor, R & D Systems catalogue number 6629-EP-025 (protein, UniProt Q6UW88 23-154, looked up)
Epigen: AAVTVTPPITAQQGNWTVNKTEADNIEGPIALKFSHLCLEDHNSYCINGACAFHHELEKAICRCFTGYTGERCEHLTLTSYAVDSYEKYIAIGIGVGLLLSGFLVIFYCYIRKRCLKLKSPYNVCSGERRPL
B2: Activin-A: protein factor, R & D Systems catalogue number 338-AC-010 (protein, UniProt P08476 311-426, looked up)
Inhibin beta A chain: GLECDGKVNICCKKQFFVSFKDIGWNDWIIAPSGYHANYCEGECPSHIAGTSGSSLSFHSTVINHYRMRGHSPFANLKSCCVPTKLRPMSMLYYDDGQNIIKKDIQNMIVEECGCS
B3: semaphorin 3a: protein factor, R & D Systems catalogue number 1250-S3-025 (protein, UniProt Q14563 21-771, looked up)
Semaphorin-3A: NYQNGKNNVPRLKLSYKEMLESNNVITFNGLANSSSYHTFLLDEERSRLYVGAKDHIFSFDLVNIKDFQKIVWPVSYTRRDECKWAGKDILKECANFIKVLKAYNQTHLYACGTGAFHPICTYIEIGHHPEDNIFKLENSHFENGRGKSPYDPKLLTASLLIDGELYSGTAADFMGRDFAIFRTLGHHHPIRTEQHDSRWLNDPKFISAHLISESDNPEDDKVYFFFRENAIDGEHSGKATHARIGQICKNDFGGHRSLVNKWTTFLKARLICSVPGPNGIDTHFDELQDVFLMNFKDPKNPVVYGVFTTSSNIFKGSAVCMYSMSDVRRVFLGPYAHRDGPNYQWVPYQGRVPYPRPGTCPSKTFGGFDSTKDLPDDVITFARSHPAMYNPVFPMNNRPIVIKTDVNYQFTQIVVDRVDAEDGQYDVMFIGTDVGTVLKVVSIPKETWYDLEEVLLEEMTVFREPTAISAMELSTKQQQLYIGSTAGVAQLPLHRCDIYGKACAECCLARDPYCAWDGSACSRYFPTAKRRTRRQDIRNGDPLTHCSDLHHDNHHGHSPEERIIYGVENSSTFLECSPKSQRALVYWQFQRRNEERKEEIRVDDHIIRTDQGLLLRSLQQKDSGNYLCHAVEHGFIQTLLKVTLEVIDTEHLEELLHKDDDGDGSKTKEMSNSMTPSQKVWYRDFMQLINHPNLNTMDEFCEQVWKRDRKQRRQRPGHTPGNSNKWKHLQENKKGRNRRTHEFERAPRSV
B4: Activin-C: protein factor, R & D Systems catalogue number 4879-AC-010 (protein, UniProt P55103 237-352, looked up)
Inhibin beta C chain: GIDCQGGSRMCCRQEFFVDFREIGWHDWIIQPEGYAMNFCIGQCPLHIAGMPGIAASFHTAVLNLLKANTAAGTTGGGSCCVPTARRPLSLLYYDRDSNIVKTDIPDMVVEACGCS

Tested on: cells of the human embryonic stem cell line H1 differentiated to stage 5
Test: Real-time PCR of pancreatic endoderm/endocrine genes after factors spiked into stage 5 media
Format: cell-based
Conditions: for expression of hormones / mRNA expression of NKX6.1: Semaphorin 3a 50 ng/ml; for expression of hormones: Epigen 20 ng/ml at S5, compared to untreated cultures; for mRNA expression of NKX6.1 / mRNA expression of insulin: factor spiked at day 1 of stage 5, mRNA at day 3 of S5, vs control cultures, Table I: Ephrin-A4 100 ng/ml; for mRNA expression of NKX6.1: Epigen 20 ng/ml, FIG. 1F; for expression of somatostatin / expression of ghrelin / expression of glucagon: 20 ng/ml at S5, mRNA at day 3 of S5, vs control; for expression of somatostatin: FIG. 1B; for expression of ghrelin: FIG. 1C; for expression of glucagon: FIG. 1D; for mRNA expression of insulin: Activin A and Activin C 20 ng/ml, FIG. 1A
Description: Cells of the human embryonic stem cell line H1 (hESC H1, passage 40) were seeded as single cells at 1×10^5 cells/cm^2 on MATRIGEL™ (1:30 dilution; BD Biosciences, NJ)-coated dishes in mTeSR®1 media (StemCell Technologies, Vancouver, Canada) supplemented with 10 μM of Y27632 (Rock inhibitor, Catalog No. Y0503, SigmaAldrich, St. Louis, Mo.). Forty-eight hours post seeding, cultures were washed in incomplete PBS (phosphate buffered saline without Mg or Ca). Cultures were differentiated into pancreatic endoderm/endocrine lineages as follows: • a) Stage 1 (Definitive Endoderm (DE)—3 days): Cells were cultured for one day in stage 1 media: MCDB-131 medium (Catalog No. 10372-019, Invitrogen, Carlsbad, Calif.) supplemented with 0.1% fatty acid-free BSA (Catalog No. 68700, Proliant, Ankeny, Iowa), 0.0012 g/ml sodium bicarbonate (Catalog No. S3187, SigmaAldrich, St. Louis, Mo.), 1× GlutaMax™ (Invitrogen Catalog No. 35050-079), 4.5 mM D-Glucose (SigmaAldrich Catalog No. G8769), 100 ng/ml GDF8 (R&D Systems, Minneapolis, Minn.) and 1 μM MCX compound (a GSK3B inhibitor, 14-Prop-2-en-1-yl-3,5,7,14,17,23,27-heptaazatetracyclo [19.3.1.1˜2,6˜0.1˜8,12˜]heptacosa-1(25),2(27),3,5,8(26),9,11,21,23-nonaen-16-one, US Patent Application Publication No. 2010-0015711; incorporated herein by reference in its entirety). Cells were then cultured for additional day in MCDB-131 medium supplemented with 0.1% fatty acid-free BSA, 0.0012 g/ml sodium bicarbonate, 1× GlutaMax™, 4.5 mM D-Glucose, 100 ng/ml GDF8, and 0.1 μM MCX compound. Cells were then cultured for an additional day in MCDB-131 medium supplemented with 0.1% fatty acid-free BSA, 0.0012 g/ml sodium bicarbonate, 1× GlutaMax™, 4.5 mM D-Glucose, and 100 ng/ml GDF8, then • b) Stage 2 (Primitive gut tube—2 days): Cells were treated for two days with MCDB-131 medium supplemented with 0.1% fatty acid-free BSA; 0.0012 g/ml sodium bicarbonate; 1× GlutaMax™; 4.5 mM D-Glucose; 0.25 mM ascorbic acid (Sigma, St. Louis, Mo.) and 25 ng/ml FGF7 (R & D Systems, Minneapolis, Minn.), then • c) Stage 3 (Foregut—2 days): Cells were treated with MCDB-131 medium supplemented with a 1:200 dilution of ITS-X (Invitrogen); 4.5 mM Glucose; 1× GlutaMax™; 0.0017 g/ml sodium bicarbonate; 2% fatty acid-free BSA; 0.25 μM SANT-1 (Sigma, St. Louis, Mo.); 10 ng/ml of Activin-A (R & D Systems); 1 μM retinoic acid (RA; Sigma); 25 ng/ml FGF7; 0.25 mM ascorbic acid; 200 nM TPB (a PKC activator; Catalog No. 565740; EMD Chemicals, Gibstown, N.J.); 10 μM forskolin (FSK, Sigma), and 100 nM LDN (a BMP receptor inhibitor; Catalog No. 04-0019; Stemgent; San Diego, Calif.) for day 1. On day 2, cells were treated with MCDB-131 medium supplemented with a 1:200 dilution of ITS-X; 4.5 mM Glucose; 1× GlutaMax™; 0.0017 g/ml sodium bicarbonate; 2% fatty acid-free BSA; 0.25 μM SANT-1; 10 ng/ml of Activin A; 1 μM RA; 25 ng/ml FGF7; 0.25 mM ascorbic acid, 200 nM TPB, 10 μM forskolin and 10 nM LDN, then • d) Stage 4 (Pancreatic foregut precursor—2 days); Cells were treated with MCDB-131 medium supplemented with a 1:200 dilution of ITS-X; 4.5 mM Glucose; 1× GlutaMax™; 0.0015 g/ml sodium bicarbonate; 2% fatty acid-free BSA; 0.25 μM SANT-1; 50 nM RA; 50 nM LDN-193189; 10 μM forskolin; 0.25 mM ascorbic acid; and 100 nM TPB for two days, then • e) Stage 5 (Pancreatic endoderm/endocrine—3 days): Stage 4 cells were treated with MCDB-131 medium supplemented with a 1:200 dilution of ITS-X; 20 mM Glucose; 1× GlutaMax™; 0.0015 g/ml sodium bicarbonate; 2% fatty acid-free BSA; 0.25 μM SANT-1; 50 nM RA; 10 μM forskolin; 0.25 mM ascorbic acid for three days, with the addition of 100 nM ALk5 inhibitor SD-208 (disclosed in Molecular Pharmacology 2007, 72:152-161) for days 2-3 only.
At day 1 of stage 5, the factors listed in Table I, below, were spiked into the media and upon completion of S5 (day 3 of stage 5) mRNA was collected for PCR analysis of relevant pancreatic endoderm/endocrine genes. As a control, cultures were treated only with the S5 media listed above. […]

Row | Molecule | expression of hormones | mRNA expression of NKX6.1 | expression of somatostatin | expression of ghrelin | expression of glucagon | mRNA expression of insulin
1 | B1 | not affecting | enhanced | – | – | – | –
2 | B2 | – | – | significantly enhanced | suppressing | suppressing | suppressing
3 | B3 | not affecting | enhanced | – | – | – | –
4 | B4 | – | – | significantly enhanced | suppressing | suppressing | suppressing
